Data on 1 molecule can be found in article PMC3643599.

One data set deals with GST-TDP (101-261) (human, UniProt Q13148 101-261). The data set can be described thus: CD titration.
The next data set deals with His-TDP (101-261) (human, UniProt Q13148 101-261). The data set can be described thus: lysine acetylation footprinting MS.
His-TDP (101-261), sequence (Q13148 101-261): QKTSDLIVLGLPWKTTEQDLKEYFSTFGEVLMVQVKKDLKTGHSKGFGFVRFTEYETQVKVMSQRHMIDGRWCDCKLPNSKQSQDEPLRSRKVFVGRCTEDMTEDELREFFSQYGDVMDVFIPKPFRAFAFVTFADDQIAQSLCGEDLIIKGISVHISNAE

GST-TDP (101-261), sequence (Q13148 101-261): as above

B1: (UG)6 (ssRNA)
RNA: UGUGUGUGUGUG
Turning to B1, the binding result with GST-TDP (101-261) and with His-TDP (101-261) was “binds” each time.
